Test results from paper PMC5887321.
Like-named read-outs stand apart in the source and are kept apart here.

Key:
Assay in all cases: SEC-SAXS
[1] = target: T1, DC-RIG-I (CARDs-truncated) (human, UniProt O95786 239-925)
T1 sequence: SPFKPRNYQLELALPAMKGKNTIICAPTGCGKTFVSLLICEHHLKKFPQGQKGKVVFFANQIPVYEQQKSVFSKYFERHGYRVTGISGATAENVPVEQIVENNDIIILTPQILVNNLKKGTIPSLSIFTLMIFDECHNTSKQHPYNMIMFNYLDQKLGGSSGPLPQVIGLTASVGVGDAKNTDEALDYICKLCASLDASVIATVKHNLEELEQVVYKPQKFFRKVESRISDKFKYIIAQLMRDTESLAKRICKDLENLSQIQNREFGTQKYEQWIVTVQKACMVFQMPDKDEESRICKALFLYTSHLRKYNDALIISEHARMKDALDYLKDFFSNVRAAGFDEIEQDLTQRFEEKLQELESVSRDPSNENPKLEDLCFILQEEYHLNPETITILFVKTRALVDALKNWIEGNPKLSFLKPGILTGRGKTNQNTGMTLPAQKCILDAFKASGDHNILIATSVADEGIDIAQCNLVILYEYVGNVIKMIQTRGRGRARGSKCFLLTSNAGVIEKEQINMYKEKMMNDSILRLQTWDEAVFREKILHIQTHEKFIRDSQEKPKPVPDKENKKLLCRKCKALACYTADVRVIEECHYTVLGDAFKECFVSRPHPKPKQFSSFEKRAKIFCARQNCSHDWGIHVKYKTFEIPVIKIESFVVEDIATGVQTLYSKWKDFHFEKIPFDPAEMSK

[2] = target: T2, FL-RIG-I (human, UniProt O95786 1-925)
T2 sequence: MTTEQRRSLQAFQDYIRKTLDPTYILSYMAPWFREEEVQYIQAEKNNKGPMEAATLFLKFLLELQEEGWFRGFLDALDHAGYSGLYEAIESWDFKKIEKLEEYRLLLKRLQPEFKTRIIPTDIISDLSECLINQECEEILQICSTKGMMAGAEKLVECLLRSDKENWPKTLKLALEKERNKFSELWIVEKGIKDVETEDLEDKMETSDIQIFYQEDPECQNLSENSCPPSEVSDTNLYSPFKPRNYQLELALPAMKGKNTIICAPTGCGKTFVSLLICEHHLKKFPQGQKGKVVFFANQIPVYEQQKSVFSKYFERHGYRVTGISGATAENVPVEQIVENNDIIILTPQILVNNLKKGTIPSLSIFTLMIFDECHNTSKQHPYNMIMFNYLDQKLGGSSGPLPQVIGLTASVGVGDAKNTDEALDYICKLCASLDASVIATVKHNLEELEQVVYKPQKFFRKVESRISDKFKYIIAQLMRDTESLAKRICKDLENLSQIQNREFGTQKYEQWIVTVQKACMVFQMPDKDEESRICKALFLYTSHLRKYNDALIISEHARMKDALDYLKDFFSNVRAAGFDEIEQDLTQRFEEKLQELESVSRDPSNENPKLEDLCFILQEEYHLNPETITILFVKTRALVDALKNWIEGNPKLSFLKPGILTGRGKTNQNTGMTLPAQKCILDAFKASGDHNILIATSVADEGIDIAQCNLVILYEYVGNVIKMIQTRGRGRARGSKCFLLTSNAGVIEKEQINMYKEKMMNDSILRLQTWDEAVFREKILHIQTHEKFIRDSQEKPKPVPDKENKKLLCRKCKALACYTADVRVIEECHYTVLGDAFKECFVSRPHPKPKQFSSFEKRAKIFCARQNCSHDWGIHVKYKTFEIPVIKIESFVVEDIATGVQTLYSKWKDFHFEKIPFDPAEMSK

[3] = target: T1, DC-RIG-I (CARDs-truncated); remark: listed apart in the source
[4] = target: T2, FL-RIG-I; remark: listed apart in the source
[5] = target: T1, DC-RIG-I (CARDs-truncated); remark: listed apart in the source
[6] = target: T2, FL-RIG-I; remark: listed apart in the source

B1: 8 bp-long (self-annealed 8 bp, SEC peak 2) (dsRNA)
RNA 1: GGCGCGGCUUCGGCCGCGCC
RNA 2: GGCGCGGCUUCGGCCGCGCC
modifications: 5'-triphosphate on each strand
binding result [1]: binds
binding result [2]: binds

GGACGUACGUUUCGACGUACGUCC (structured_RNA, 5'-triphosphate) [5'ppp 10 bp hairpin (10 bp)]
binding result [3]: binds
binding result [4]: binds

GGCGCGGCUUCGGCCGCGCC (structured_RNA, 5'-triphosphate) [5'ppp 8 bp hairpin (8 bp, SEC peak 1)]
binding result [5]: binds
binding result [6]: binds
